“And” between values parts separate entries of the source, which are not always exact repeats. Equal entries are not always repeated. Where two headings read alike, the source gives them in different places.
Assays:
N NTD;N LKR-CTD = N NTD;N LKR-CTD (SARS-CoV-2;SARS-CoV-2, UniProt P0DTC9;P0DTC9 44-176;177-369, |); assay: fluorescence polarization
N WT [1] = molecular target: T1, N WT (SARS-CoV-2, UniProt P0DTC9 1-419); assay: fluorescence polarization
N NTD-LKR = N NTD-LKR (SARS-CoV-2, UniProt P0DTC9 44-247); assay: fluorescence polarization
N CTD [2] = molecular target: T2, N CTD (SARS-CoV-2, UniProt P0DTC9 248-369); assay: fluorescence polarization
N LKR-CTD = N LKR-CTD (SARS-CoV-2, UniProt P0DTC9 177-369); assay: fluorescence polarization
N NTD-LKR-CTD-Carm = N NTD-LKR-CTD-Carm (SARS-CoV-2, UniProt P0DTC9 44-419); assay: fluorescence polarization
N NTD-LKR-CTD [3] = molecular target: T3, N NTD-LKR-CTD (SARS-CoV-2, UniProt P0DTC9 44-369); assay: fluorescence polarization
N NTD [4] = molecular target: T4, N NTD (SARS-CoV-2, UniProt P0DTC9 44-176); assay: fluorescence polarization
N NTD-LKR;N CTD = N NTD-LKR;N CTD (SARS-CoV-2;SARS-CoV-2, UniProt P0DTC9;P0DTC9 44-247;248-369, |); assay: fluorescence polarization
N WT [5] = molecular target: T1, N WT; assay: fluorescence anisotropy
N NTD-LKR-CTD [6] = molecular target: T3, N NTD-LKR-CTD; assay: fluorescence anisotropy
N CTD [7] = molecular target: T2, N CTD; assay: fluorescence polarization; remark: listed apart in the source
N NTD [8] = molecular target: T4, N NTD; assay: fluorescence polarization; remark: listed apart in the source
N NTD-LKR-CTD [9] = molecular target: T3, N NTD-LKR-CTD; assay: fluorescence polarization; remark: listed apart in the source

| Binder | Kd (N NTD;N LKR-CTD) [nM] | Kd (N WT [1]) [nM] | Kd (N NTD-LKR) | Kd (N CTD [2]) [nM] | Kd (N LKR-CTD) [nM] | Kd (N NTD-LKR-CTD-Carm) [nM] | Kd (N NTD-LKR-CTD [3]) [nM] | Kd (N NTD [4]) [nM] | Kd (N NTD-LKR;N CTD) [nM] | Kd (N WT [5]) [nM] | Kd (N NTD-LKR-CTD [6]) [nM] | Kd (N CTD [7]) [nM] | Kd (N NTD [8]) [nM] | Kd (N NTD-LKR-CTD [9]) [nM] |
| --- | --- | --- | --- | --- | --- | --- | --- | --- | --- | --- | --- | --- | --- | --- |
| UUUCACCUCCCUUUCAGUUU (ssRNA) [20-nt ssRNA] | 720 ± 90 | 7 ± 1 | 500 ± 80 nM | 13000 ± 5000 | 350 ± 40 | 6 ± 2 | 6 ± 2 | 16000 ± 12000 | 440 ± 40 | 7 ± 1 | 6 ± 2 | – | – | – |
| GGAAGAUUAAUAAUUUUCC (structured_RNA) [19-nt slRNA] | – | 51 ± 4 | 2500 nM and 3000 nM | – | – | 100 ± 10 | – | – | – | – | – | 65000 ± 44000 | 124000 ± 84000 | 220 ± 20 |

From PMC8168301
